Tests used:
HLA-B*51:01 = assay: IEDB peptide-MHC binding, purified MHC/competitive/fluorescence; filed as Kd, often an IC50 or EC50 that approximates it; ≥ and ≤ were set here for values at or beyond the usual limits of such assays; conditions: source organism: Yersinia pestis Nepal516
HLA-B*07:02 [1] = assay: as above; conditions: source organism: Yersinia pestis Nepal516
HLA-B*35:01 = assay: as above; conditions: source organism: Yersinia pestis Nepal516
HLA-B*39:01 = assay: as above; conditions: source organism: Yersinia pestis Nepal516
HLA-A*02:17 = assay: IEDB peptide-MHC binding, purified MHC/competitive/radioactivity; filed as Kd, often an IC50 or EC50 that approximates it; ≥ and ≤ were set here for values at or beyond the usual limits of such assays
HLA-A*02:01 [2] = assay: as above
HLA-A*02:03 [3] = assay: as above
HLA-A*24:02 = assay: IEDB peptide-MHC binding, purified MHC/competitive/fluorescence; filed as Kd, often an IC50 or EC50 that approximates it; ≥ and ≤ were set here for values at or beyond the usual limits of such assays
HLA-A*31:01 [4] = assay: as above; conditions: source organism: Salmonella enterica subsp. enterica serovar Typhimurium str. LT2
HLA-A*03:01 = assay: IEDB peptide-MHC binding, purified MHC/competitive/fluorescence; ≥ and ≤ were set here for values at or beyond the usual limits of such assays; conditions: source organism: Zaire ebolavirus
HLA-A*11:01 [5] = assay: as above; conditions: source organism: Zaire ebolavirus
HLA-B*15:01 = assay: IEDB peptide-MHC binding, purified MHC/direct/fluorescence; filed as Kd, often an IC50 or EC50 that approximates it; ≥ and ≤ were set here for values at or beyond the usual limits of such assays; conditions: source organism: Yellow fever virus 17D
HLA-B*46:01 = assay: as above; conditions: source organism: Yellow fever virus 17D
HLA-B*15:42 = assay: IEDB peptide-MHC binding, purified MHC/competitive/fluorescence; filed as Kd, often an IC50 or EC50 that approximates it; ≥ and ≤ were set here for values at or beyond the usual limits of such assays; conditions: source organism: Yellow fever virus
HLA-B*45:06 = assay: as above; conditions: source organism: Yellow fever virus
HLA-B*83:01 = assay: as above; conditions: source organism: Yellow fever virus
HLA-B*57:01 = assay: IEDB peptide-MHC binding, purified MHC/direct/fluorescence; filed as Kd, often an IC50 or EC50 that approximates it; ≥ and ≤ were set here for values at or beyond the usual limits of such assays; conditions: source organism: Giardia intestinalis
HLA-A*69:01 = assay: as above; conditions: source organism: Giardia intestinalis
HLA-A*68:02 = assay: as above; conditions: source organism: Giardia intestinalis
HLA-A*02:01 [6] = assay: as above; conditions: source organism: Giardia intestinalis
HLA-B*48:01 = assay: as above; conditions: source organism: Giardia intestinalis
HLA-A*31:01 [7] = assay: as above; conditions: source organism: Giardia intestinalis
HLA-B*27:05 = assay: as above; conditions: source organism: Giardia intestinalis
HLA-B*07:02 [8] = assay: as above; conditions: source organism: Giardia intestinalis
HLA-B*40:01 = assay: as above; conditions: source organism: Giardia intestinalis
HLA-A*26:01 = assay: as above; conditions: source organism: Giardia lamblia ATCC 50803
HLA-A*01:01 = assay: as above; conditions: source organism: Giardia intestinalis
HLA-B*18:01 = assay: as above; conditions: source organism: Giardia intestinalis
HLA-A*11:01 [9] = assay: as above; conditions: source organism: Giardia intestinalis
HLA-B*58:01 = assay: as above; conditions: source organism: Giardia intestinalis
HLA-A*02:03 [10] = assay: IEDB peptide-MHC binding, purified MHC/competitive/fluorescence; filed as Kd, often an IC50 or EC50 that approximates it; ≥ and ≤ were set here for values at or beyond the usual limits of such assays; conditions: source organism: Giardia intestinalis
HLA-A*11:01 [11] = assay: as above; conditions: source organism: Homo sapiens
[12] = source organism: Dengue virus 2 Thailand/NGS-C/1944
[13] = source organism: Dengue virus 1 Singapore/S275/1990

With FPVAMLSCL the Kd (HLA-B*51:01) was 0.186 µM, the Kd (HLA-B*07:02 [1]) was 0.0157 µM and the Kd (HLA-B*35:01) was at most 0.0001 µM. For the same sequence, the Kd (HLA-B*39:01) was 0.0185 µM.
Sequence LLVLCVTQV has a Kd (HLA-A*02:17; [12]) of at least 5 µM, a Kd (HLA-A*02:01 [2]; [12]) of 0.0649 µM and a Kd (HLA-A*02:03 [3]; source organism: Dengue virus 2 Peru/IQT2913/1996) of 0.0384 µM.
With SFFYRYGF the Kd (HLA-A*24:02; source organism: Influenza A virus (A/Fort Monmouth/1/1947-mouse adapted(H1N1))) was 0.0357 µM.
With LYNKMEFEPF the Kd (HLA-A*24:02; source organism: Influenza A virus H3N2) was 0.0033 µM.
Work on MVGIVHFNK yielded a Kd (HLA-A*24:02; source organism: Salmonella enterica subsp. enterica serovar Typhimurium str. LT2) of 0.0429 µM and a Kd (HLA-A*31:01 [4]) of 0.09 µM.
In the case of QLQQYAESR, the IC50 (HLA-A*03:01) is reported as at least 240 µM and the IC50 (HLA-A*11:01 [5]) is reported as 18.7 µM.
Work on AEMGANLCV yielded a Kd (HLA-B*15:01) of at least 20 µM, a Kd (HLA-B*46:01) of at least 20 µM and a Kd (HLA-B*15:42) of at least 5 µM. It also gave a Kd (HLA-B*45:06) of at least 5 µM and a Kd (HLA-B*83:01) of at least 5 µM.
Sequence TLAVFLLLI has a Kd (HLA-A*02:17; [13]) of 1.84 µM and a Kd (HLA-A*02:01 [2]; [13]) of 2.59 µM.
Sequence LEKWNLGII has a Kd (HLA-B*57:01) of at least 20 µM, a Kd (HLA-A*69:01) of at least 20 µM and a Kd (HLA-A*68:02) of at least 20 µM. It also gave a Kd (HLA-A*02:01 [6]) of at least 20 µM, a Kd (HLA-B*48:01) of at least 20 µM and a Kd (HLA-A*31:01 [7]) of at least 20 µM. For the same sequence, the Kd (HLA-B*27:05) was at least 20 µM, the Kd (HLA-B*07:02 [8]) was at least 20 µM and the Kd (HLA-B*40:01) was 0.599 µM. For the same sequence, the Kd (HLA-A*26:01) was at least 20 µM, the Kd (HLA-A*01:01) was at least 20 µM and the Kd (HLA-B*18:01) was 1.14 µM. It also gave a Kd (HLA-A*11:01 [9]) of at least 20 µM, a Kd (HLA-B*58:01) of at least 20 µM and a Kd (HLA-A*02:03 [10]) of 4.37 µM.
For KLLTKPWDV, the Kd (HLA-A*02:17; source organism: Dengue virus 4 Philippines/H241/1956) was 0.379 µM.
FLAHAIGTSI showed a Kd (HLA-A*02:17; [13]) of 0.00185 µM, a Kd (HLA-A*02:01 [2]; [13]) of 0.00819 µM and a Kd (HLA-A*02:03 [3]; source organism: Dengue virus 1 Brazil/97-11/1997) of 0.0467 µM.
ATTTSPQNH was tested, and the IC50 (HLA-A*03:01) was 37.7 µM and the IC50 (HLA-A*11:01 [5]) was 1.91 µM.
Sequence YLDDRNTFR has a Kd (HLA-A*11:01 [11]) of at least 20 µM.

From the Immune Epitope Database (IEDB)
